Experimental data reported in article PMC10912764.

Key:
[1] = target: amyloid-β peptide Aβ (1–42) (UniProt P05067)
[2] = target: amyloid-β peptide Aβ (1–42) (UniProt P05067); remark: listed apart in the source

E. coli CsgA protein with a C-terminal 6× His tag, sequence (P28307 21-151): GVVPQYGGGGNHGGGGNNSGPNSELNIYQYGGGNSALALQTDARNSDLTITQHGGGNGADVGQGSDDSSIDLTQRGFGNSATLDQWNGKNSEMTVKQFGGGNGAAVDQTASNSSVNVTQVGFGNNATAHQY

“E. coli CsgA protein with a C-terminal 6× His tag (from UniProt P28307 21-151) (natural protein)” was tested, and the inhibition of Aβ aggregation (ThT fluorescence; 75 µM Aβ with 10 µM CsgA, excess Aβ 7.5:1) [1] was 43%, the lag phase of Aβ aggregation (ThT) with CsgA; approximately 150 h without CsgA [1] was 175 h and the inhibition of Aβ aggregation (ThT fluorescence; 75 µM Aβ with 10 µM CsgA), as given in the legend [2] was 47%.
